Molecular target: α-dystroglycan isolated from skeletal muscle (UniProt Q28685)
Assay: ELISA

Sequence of UniProt Q28685 (Q28685 30-653): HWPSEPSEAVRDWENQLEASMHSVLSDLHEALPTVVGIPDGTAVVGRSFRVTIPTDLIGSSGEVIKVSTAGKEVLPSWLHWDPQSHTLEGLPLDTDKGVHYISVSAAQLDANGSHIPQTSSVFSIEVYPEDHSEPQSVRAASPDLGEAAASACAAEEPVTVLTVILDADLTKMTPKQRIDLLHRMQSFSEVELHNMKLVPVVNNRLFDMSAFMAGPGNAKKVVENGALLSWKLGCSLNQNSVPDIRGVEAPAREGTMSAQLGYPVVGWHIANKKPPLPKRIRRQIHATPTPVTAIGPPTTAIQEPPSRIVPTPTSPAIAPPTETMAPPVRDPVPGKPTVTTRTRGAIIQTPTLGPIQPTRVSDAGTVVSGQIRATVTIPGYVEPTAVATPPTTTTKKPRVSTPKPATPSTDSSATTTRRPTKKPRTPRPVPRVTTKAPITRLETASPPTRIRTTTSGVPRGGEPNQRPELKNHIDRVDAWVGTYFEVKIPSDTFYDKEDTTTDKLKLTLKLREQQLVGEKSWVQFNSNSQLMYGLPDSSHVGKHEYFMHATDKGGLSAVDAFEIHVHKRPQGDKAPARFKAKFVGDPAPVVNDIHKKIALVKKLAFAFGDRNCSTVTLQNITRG

Q: “LCMV WE54 envelope glycoprotein displayed on FIV lentiviral vector particles (FIV-WE54) (complex)” was tested. Which OD relative to wild-type LCMV WE54 did it give?
A: The OD relative to wild-type LCMV WE54 was 0.33.
